Laboratory results taken from PMC8257661.

Target: JUNV L protein VNN(1177–1179)AAA (Junin virus (JUNV))
Experiment: MST

B1: Junin virus (JUNV) Z protein (natural protein)
chain: MGNCNGASKSNQPDSSRVTQPAAEFRRVAHSSLYGRYNCKCCWFADTNLITCNDHYLCLRCHQVMLRNSDLCNICWKPLPTTITVPVEPTAPPP
  Kd: 914 nM
